Data: publication PMC314469, “Protein Interaction Networks by Proteome Peptide Scanning” (PLoS Biology, 2004)

How the values were obtained:
Test in all cases: SPOT array
[1] = target: T1, Yhr016c SH3 (YSC84_YEAST), P32793
T1 chain: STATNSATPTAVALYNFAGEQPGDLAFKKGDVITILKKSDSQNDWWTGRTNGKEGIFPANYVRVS

[2] = target: T2, Boi1 SH3 (BOI1_YEAST), P38041
T2 chain: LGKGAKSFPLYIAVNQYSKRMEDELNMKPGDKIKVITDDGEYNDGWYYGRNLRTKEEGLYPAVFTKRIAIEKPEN

[3] = target: T3, Boi2 SH3 (BOI2_YEAST), P39969
T3 chain: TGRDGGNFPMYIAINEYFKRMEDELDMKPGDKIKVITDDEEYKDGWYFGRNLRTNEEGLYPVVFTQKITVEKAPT

[4] = target: T4, Rvs167 SH3 (RV167_YEAST), P39743
T4 chain: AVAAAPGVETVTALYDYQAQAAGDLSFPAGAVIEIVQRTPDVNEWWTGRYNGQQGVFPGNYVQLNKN

[5] = target: T5, Yfr024 SH3 (LSB3_YEAST), P43603
T5 chain: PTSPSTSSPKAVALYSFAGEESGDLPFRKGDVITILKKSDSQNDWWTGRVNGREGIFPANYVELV

GLEPNTPLKSIKVD [YGL009C 340-353]
normalised SPOT signal, Boehringer light units (BLU); mean over the file's lines of this peptide [1]: 47.7 | normalised SPOT signal, Boehringer light units (BLU); mean over the file's lines of this peptide [2]: 55.1 | normalised SPOT signal, Boehringer light units (BLU); mean over the file's lines of this peptide [3]: 58.9 | normalised SPOT signal, Boehringer light units (BLU); mean over the file's lines of this peptide [4]: 59.1 | normalised SPOT signal, Boehringer light units (BLU); mean over the file's lines of this peptide [5]: 68.2

GNVPHSPVRFADTV [YJR025C 93-106]
normalised SPOT signal, Boehringer light units (BLU); mean over the file's lines of this peptide [1]: 49 | normalised SPOT signal, Boehringer light units (BLU); mean over the file's lines of this peptide [2]: 115 | normalised SPOT signal, Boehringer light units (BLU); mean over the file's lines of this peptide [3]: 29.6 | normalised SPOT signal, Boehringer light units (BLU); mean over the file's lines of this peptide [4]: 36.2 | normalised SPOT signal, Boehringer light units (BLU); mean over the file's lines of this peptide [5]: 0.8

GAPPPPPHKDHLSD [YMR280C 206-219]
normalised SPOT signal, Boehringer light units (BLU); mean over the file's lines of this peptide [1]: 154 | normalised SPOT signal, Boehringer light units (BLU); mean over the file's lines of this peptide [2]: 104 | normalised SPOT signal, Boehringer light units (BLU); mean over the file's lines of this peptide [3]: 17.2 | normalised SPOT signal, Boehringer light units (BLU); mean over the file's lines of this peptide [4]: 75.6 | normalised SPOT signal, Boehringer light units (BLU); mean over the file's lines of this peptide [5]: 47.2

GNTPDAPKRGFLGY [YDL245C 44-57]
normalised SPOT signal, Boehringer light units (BLU); mean over the file's lines of this peptide [1]: 230 | normalised SPOT signal, Boehringer light units (BLU); mean over the file's lines of this peptide [2]: 86.5 | normalised SPOT signal, Boehringer light units (BLU); mean over the file's lines of this peptide [3]: 27.7 | normalised SPOT signal, Boehringer light units (BLU); mean over the file's lines of this peptide [4]: 37.1 | normalised SPOT signal, Boehringer light units (BLU); mean over the file's lines of this peptide [5]: 658

GAPPTTPSRPRTTT [YGR170W 91-104]
normalised SPOT signal, Boehringer light units (BLU); mean over the file's lines of this peptide [1]: 9930 | normalised SPOT signal, Boehringer light units (BLU); mean over the file's lines of this peptide [2]: 0 | normalised SPOT signal, Boehringer light units (BLU); mean over the file's lines of this peptide [3]: 78.2 | normalised SPOT signal, Boehringer light units (BLU); mean over the file's lines of this peptide [4]: 366 | normalised SPOT signal, Boehringer light units (BLU); mean over the file's lines of this peptide [5]: 13900

GPAPPPPPRASRPT [YOR181W 384-397]
normalised SPOT signal, Boehringer light units (BLU); mean over the file's lines of this peptide [1]: 2360 | normalised SPOT signal, Boehringer light units (BLU); mean over the file's lines of this peptide [2]: 10300 | normalised SPOT signal, Boehringer light units (BLU); mean over the file's lines of this peptide [3]: 55.8 | normalised SPOT signal, Boehringer light units (BLU); mean over the file's lines of this peptide [4]: 3120 | normalised SPOT signal, Boehringer light units (BLU); mean over the file's lines of this peptide [5]: 6370

GGDPTKPVRTWNDL [YEL056W 193-206]
normalised SPOT signal, Boehringer light units (BLU); mean over the file's lines of this peptide [1]: 170 | normalised SPOT signal, Boehringer light units (BLU); mean over the file's lines of this peptide [2]: 31.1 | normalised SPOT signal, Boehringer light units (BLU); mean over the file's lines of this peptide [3]: 42.7 | normalised SPOT signal, Boehringer light units (BLU); mean over the file's lines of this peptide [4]: 16.4 | normalised SPOT signal, Boehringer light units (BLU); mean over the file's lines of this peptide [5]: 203

GHTPQFPTKDEVSS [YNR031C 1516-1529]
normalised SPOT signal, Boehringer light units (BLU); mean over the file's lines of this peptide [1]: 266 | normalised SPOT signal, Boehringer light units (BLU); mean over the file's lines of this peptide [2]: 25.2 | normalised SPOT signal, Boehringer light units (BLU); mean over the file's lines of this peptide [3]: 31.7 | normalised SPOT signal, Boehringer light units (BLU); mean over the file's lines of this peptide [4]: 22.1 | normalised SPOT signal, Boehringer light units (BLU); mean over the file's lines of this peptide [5]: 19.8

FVSPRIPSRIVKNG [YOR086C 892-905]
normalised SPOT signal, Boehringer light units (BLU); mean over the file's lines of this peptide [1]: 9870 | normalised SPOT signal, Boehringer light units (BLU); mean over the file's lines of this peptide [2]: 898 | normalised SPOT signal, Boehringer light units (BLU); mean over the file's lines of this peptide [3]: 1080 | normalised SPOT signal, Boehringer light units (BLU); mean over the file's lines of this peptide [4]: 10100 | normalised SPOT signal, Boehringer light units (BLU); mean over the file's lines of this peptide [5]: 34100

GNIPVFPAKFGIQF [YAL010C 476-489]
normalised SPOT signal, Boehringer light units (BLU); mean over the file's lines of this peptide [1]: 212 | normalised SPOT signal, Boehringer light units (BLU); mean over the file's lines of this peptide [2]: 46.1 | normalised SPOT signal, Boehringer light units (BLU); mean over the file's lines of this peptide [3]: 59.2 | normalised SPOT signal, Boehringer light units (BLU); mean over the file's lines of this peptide [4]: 50.1 | normalised SPOT signal, Boehringer light units (BLU); mean over the file's lines of this peptide [5]: 1730

GITPVGPGKFSRSA [YEL050C 256-269]
normalised SPOT signal, Boehringer light units (BLU); mean over the file's lines of this peptide [1]: 81.1 | normalised SPOT signal, Boehringer light units (BLU); mean over the file's lines of this peptide [2]: 21.6 | normalised SPOT signal, Boehringer light units (BLU); mean over the file's lines of this peptide [3]: 55.7 | normalised SPOT signal, Boehringer light units (BLU); mean over the file's lines of this peptide [4]: 32.3 | normalised SPOT signal, Boehringer light units (BLU); mean over the file's lines of this peptide [5]: 21.5

FYEPLDPQKDKDMT [YJL155C 176-189]
normalised SPOT signal, Boehringer light units (BLU); mean over the file's lines of this peptide [1]: 129 | normalised SPOT signal, Boehringer light units (BLU); mean over the file's lines of this peptide [2]: 71.3 | normalised SPOT signal, Boehringer light units (BLU); mean over the file's lines of this peptide [3]: 19.8 | normalised SPOT signal, Boehringer light units (BLU); mean over the file's lines of this peptide [4]: 14.1 | normalised SPOT signal, Boehringer light units (BLU); mean over the file's lines of this peptide [5]: 121

GKVPVQPRKRKSIT [YKL062W 547-560]
normalised SPOT signal, Boehringer light units (BLU); mean over the file's lines of this peptide [1]: 296 | normalised SPOT signal, Boehringer light units (BLU); mean over the file's lines of this peptide [2]: 242 | normalised SPOT signal, Boehringer light units (BLU); mean over the file's lines of this peptide [3]: 85.3 | normalised SPOT signal, Boehringer light units (BLU); mean over the file's lines of this peptide [4]: 73 | normalised SPOT signal, Boehringer light units (BLU); mean over the file's lines of this peptide [5]: 1430

GGQPPVPVRMQPQP [YBR108W 379-392]
normalised SPOT signal, Boehringer light units (BLU); mean over the file's lines of this peptide [1]: 1930 | normalised SPOT signal, Boehringer light units (BLU); mean over the file's lines of this peptide [2]: 85.9 | normalised SPOT signal, Boehringer light units (BLU); mean over the file's lines of this peptide [3]: 89.9 | normalised SPOT signal, Boehringer light units (BLU); mean over the file's lines of this peptide [4]: 794 | normalised SPOT signal, Boehringer light units (BLU); mean over the file's lines of this peptide [5]: 6010

FWNPENPYKFVHPR [YEL011W 171-184]
normalised SPOT signal, Boehringer light units (BLU); mean over the file's lines of this peptide [1]: 248 | normalised SPOT signal, Boehringer light units (BLU); mean over the file's lines of this peptide [2]: 169 | normalised SPOT signal, Boehringer light units (BLU); mean over the file's lines of this peptide [3]: 55.6 | normalised SPOT signal, Boehringer light units (BLU); mean over the file's lines of this peptide [4]: 67.7 | normalised SPOT signal, Boehringer light units (BLU); mean over the file's lines of this peptide [5]: 524

GIKPQQPIKVDIKG [YPL105C 573-586]
normalised SPOT signal, Boehringer light units (BLU); mean over the file's lines of this peptide [1]: 153 | normalised SPOT signal, Boehringer light units (BLU); mean over the file's lines of this peptide [2]: 115 | normalised SPOT signal, Boehringer light units (BLU); mean over the file's lines of this peptide [3]: 41 | normalised SPOT signal, Boehringer light units (BLU); mean over the file's lines of this peptide [4]: 38.7 | normalised SPOT signal, Boehringer light units (BLU); mean over the file's lines of this peptide [5]: 103

GGPPLLPQKSAAFQ [YPL084W 731-744]
normalised SPOT signal, Boehringer light units (BLU); mean over the file's lines of this peptide [1]: 119 | normalised SPOT signal, Boehringer light units (BLU); mean over the file's lines of this peptide [2]: 128 | normalised SPOT signal, Boehringer light units (BLU); mean over the file's lines of this peptide [3]: 2 | normalised SPOT signal, Boehringer light units (BLU); mean over the file's lines of this peptide [4]: 28.4 | normalised SPOT signal, Boehringer light units (BLU); mean over the file's lines of this peptide [5]: 7090

GIHPGFPIRMVQYA [YPL025C 36-49]
normalised SPOT signal, Boehringer light units (BLU); mean over the file's lines of this peptide [1]: 154 | normalised SPOT signal, Boehringer light units (BLU); mean over the file's lines of this peptide [2]: 69.6 | normalised SPOT signal, Boehringer light units (BLU); mean over the file's lines of this peptide [3]: 114 | normalised SPOT signal, Boehringer light units (BLU); mean over the file's lines of this peptide [4]: 24.6 | normalised SPOT signal, Boehringer light units (BLU); mean over the file's lines of this peptide [5]: 331

GILPLAPLRPLDPL [YPL085W 915-928]
normalised SPOT signal, Boehringer light units (BLU); mean over the file's lines of this peptide [1]: 318 | normalised SPOT signal, Boehringer light units (BLU); mean over the file's lines of this peptide [2]: 115 | normalised SPOT signal, Boehringer light units (BLU); mean over the file's lines of this peptide [3]: 30.8 | normalised SPOT signal, Boehringer light units (BLU); mean over the file's lines of this peptide [4]: 57.3 | normalised SPOT signal, Boehringer light units (BLU); mean over the file's lines of this peptide [5]: 1660

GAKPKIPSKLYQSV [YBR138C 124-137]
normalised SPOT signal, Boehringer light units (BLU); mean over the file's lines of this peptide [1]: -0 | normalised SPOT signal, Boehringer light units (BLU); mean over the file's lines of this peptide [2]: 68.4 | normalised SPOT signal, Boehringer light units (BLU); mean over the file's lines of this peptide [3]: 76.3 | normalised SPOT signal, Boehringer light units (BLU); mean over the file's lines of this peptide [4]: 42.7 | normalised SPOT signal, Boehringer light units (BLU); mean over the file's lines of this peptide [5]: 313

GAIPRGPKKDDASF [YPR161C 424-437]
normalised SPOT signal, Boehringer light units (BLU); mean over the file's lines of this peptide [1]: 236 | normalised SPOT signal, Boehringer light units (BLU); mean over the file's lines of this peptide [2]: 94.3 | normalised SPOT signal, Boehringer light units (BLU); mean over the file's lines of this peptide [3]: 5.7 | normalised SPOT signal, Boehringer light units (BLU); mean over the file's lines of this peptide [4]: 48.1 | normalised SPOT signal, Boehringer light units (BLU); mean over the file's lines of this peptide [5]: 225

FYYPESPTKNLRPR [YML119W 56-69]
normalised SPOT signal, Boehringer light units (BLU); mean over the file's lines of this peptide [1]: 36.3 | normalised SPOT signal, Boehringer light units (BLU); mean over the file's lines of this peptide [2]: 867 | normalised SPOT signal, Boehringer light units (BLU); mean over the file's lines of this peptide [3]: 44.1 | normalised SPOT signal, Boehringer light units (BLU); mean over the file's lines of this peptide [4]: 28.6 | normalised SPOT signal, Boehringer light units (BLU); mean over the file's lines of this peptide [5]: 292
